From publication PMC3865438

Biological target: cytochrome b6f complex from Chlamydomonas reinhardtii (Chlamydomonas reinhardtii) (UniProt Q00471)
Assay: crystal structure

“cytochrome b6f complex from Chlamydomonas reinhardtii (from UniProt Q00471 1-215; P49728 30-206; P23230 1-160; P23577 32-317)” was tested, and the stoichiometry N was 2.
